Legend:
[1] = biological target: human claudin 18 isoform 2 (claudin 18.2) (human); experiment: cell-based or functional assay
[2] = biological target: human claudin 18 isoform 2 (claudin 18.2) (human); experiment: immunofluorescence imaging, CHO-CLDN18.2 cells (FIG. 3B)
[3] = biological target: human claudin 18 isoform 2 (claudin 18.2) (human); experiment: immunofluorescence imaging on CHO-Claudin18.2 cells, serial dilution of antibody; table drawn under the curves (run with Hu-2, Hu-9, Hu-10)

PC1 (in-house positive control CLDN18.2-specific antibody zolbetuximab), sequence (VH): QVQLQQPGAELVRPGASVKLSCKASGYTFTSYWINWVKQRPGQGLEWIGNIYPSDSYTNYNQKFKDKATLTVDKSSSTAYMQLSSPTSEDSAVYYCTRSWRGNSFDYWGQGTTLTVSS
PC1 (in-house positive control CLDN18.2-specific antibody zolbetuximab), sequence (VL): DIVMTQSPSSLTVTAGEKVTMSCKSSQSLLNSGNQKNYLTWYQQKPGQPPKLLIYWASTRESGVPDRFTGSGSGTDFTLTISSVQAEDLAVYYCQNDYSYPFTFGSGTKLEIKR

“PC1 (in-house positive control CLDN18.2-specific antibody zolbetuximab)” was tested, and the ADCC EC50, similar assay with human effector cells (data not shown) [1] was 0.66 nM, the EC50 [2] was 3.2 nM and the EC50 [3] was 3.2 nM.

From patent US20230067757A1
